We go through two molecules from patent publication US20140079711A1.

Assay [1] addresses CD147 N-domain (Asp19 to Asn117 of SEQ ID NO: 1) (human). Description: SPR (Biacore 3000), mAb captured by anti-mouse Fc, N-domain fragment injected. For orientation: In SPR one partner is held on a chip, and binding of the other changes the refractive index at the surface.
Assay [2] concerns the target CD147 Asp19-Asn117-Fc fusion protein (human) (UniProt P35613). Description: competition ELISA on coated CD147 Asp19-Asn117-Fc; competitor 2H3; 5F6 against labeled 2H3. In general terms: An ELISA detects its analyte on a solid surface through an enzyme-linked reagent.
Assay [3] shares this target. Description: competition ELISA on coated CD147 Asp19-Asn117-Fc; competitor 2H3; 2C8 as competitor against 2H3 on coated CD147 Asp19-Asn117-Fc.
Assay [4] shares this target. Description: competition ELISA on coated CD147 Asp19-Asn117-Fc; competitor 5F6; 2C8 as competitor against 5F6 on coated CD147 Asp19-Asn117-Fc.

B1: 5F6(mIgG1) (antibody, V domains shown)
VH: EMKLEESGGGLVQPGGSMKLSCVASGFTFSNYWMNWVRQSPEKGLEWVAQIRLKSYNYATHYAESVKGRFTISRDDSKSSVYLQMNNLRAEDTGIYYCTPDGSDYWGQGTTLTVSS
VL: SIVMTQTPKFLLVSAGDRVTITCKASQSVSNDVAWYQQKPGQSPKLLIYYASNRYTGVPDRFTGSGYGTDFTFTISTVQAEDLAVYFCQQDYSSPYTFGGGTKLEIK
B1: the Kd (usually the equilibrium constant for the complex coming apart) in assay [1] is 0.46 nM. Besides, the IC50 (in general, the concentration that gives 50% inhibition) in assay [2] worked out at 1000 nM.

B2: 2C8(mIgG1) (antibody, V domains shown)
VH: EMKLEESGGGLVQPGGSMKLSCVASGFTFSNYRMNWVRQSPEKGLEWVAQIRLKSYNYATHYAESVKGRFTISRDDSKSSVYLQMNNLRAEDTGIYYCTPDGSDYWGQGTTLTVSS
VL: DILMTQSPSSMSVSLGDTVSITCHASQGISSSIGWLQQKPGKSFKGLIYHGTNLEDGVPSRFTGSGSGADYSLTISSLESEDFADYYCVQYAQFPYTFGGGTKLEIK
Turning to B2, the half-inhibitory concentration (IC50) in assay [3] and in assay [4] was 30 nM each time. In addition, the dissociation constant (Kd) in assay [1] was found to be 0.43 nM.
